The supplement of paper PMC10724198
± gives the standard deviation of the averaged measurements.

Test system: Saccharomyces cerevisiae
Experiment: protein stability index of tFT-peptide fusion (C-terminal peptide) (PSI (0-1 scale)); higher = more stable (slower turnover)
Conditions: temperature: 30 C
Description: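 MPS profiling in S. cerevisiae of the yeast C-terminome library: the last 12 aa of each annotated ORF are fused to the C-terminus of a sfGFP-mCherry timer, after a GGGS linker. Cells are FACS-sorted into 8 mCherry/sfGFP bins and deep-sequenced. PSI runs from 0 (unstable) to 1 (stable); wild type and das1Δ backgrounds, two technical replicates each.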

[1] = genetic background: das1 deletion

Sequence	protein stability index [1]	protein stability index (genetic background: wild type)
PQDKPAGQSIWL [HRR25 C-terminal 12 aa]	0.6795 ± 0.00075	0.6948 ± 0.0048
PREGRLDKTPTY [KAR9 C-terminal 12 aa]	0.706 ± 0.008	0.704 ± 0.036
PRPACGVIGLTN [SOD1 C-terminal 12 aa]	0.713 ± 0.03	0.726 ± 0.008
PSRVALVLALKE [GLC3 C-terminal 12 aa]	0.6875 ± 0.0016	0.747 ± 0.029
PVIYGLPIKFVS [ESP1 C-terminal 12 aa]	0.7014 ± 0.0052	0.389 ± 0.0063
QAERQLYDAYFH [YFL064C C-terminal 12 aa]	0.732 ± 0.023	0.733 ± 0.038
QASSEKKWYKFW [COX20 C-terminal 12 aa]	0.755 ± 0.018	0.6753 ± 0.0053
QGILMAKQYHIK [YSA1 C-terminal 12 aa]	0.714 ± 0.018	0.702 ± 0.02
QGKTFYETVAKF [PST2 C-terminal 12 aa]	0.77 ± 0.03	0.776 ± 0.017
QHQQENPNLIDI [YAP1802 C-terminal 12 aa]	0.707 ± 0.024	0.734 ± 0.063
QIDDVNILKKNP [LIP2 C-terminal 12 aa]	0.709 ± 0.009	0.702 ± 0.053
QIPPEVQKWYYV [PPA2 C-terminal 12 aa]	0.71952 ± 0.00036	0.593 ± 0.02
QLEKEGEDGLDS [IES4 C-terminal 12 aa]	0.6881 ± 0.005	0.666 ± 0.043
QLITLLSKHLRT [HMS2 C-terminal 12 aa]	0.693 ± 0.017	0.676 ± 0.042
QLQLIMFGKKFK [AAC1 C-terminal 12 aa]	0.698 ± 0.0099	0.717 ± 0.036
QPPAAAEGEAPK [BMH1 C-terminal 12 aa]	0.712 ± 0.024	0.715 ± 0.026
QQQKVLAATLEK [HVG1 C-terminal 12 aa]	0.73 ± 0.0088	0.656 ± 0.012
QRCCECASGNGC [YDR442W C-terminal 12 aa]	0.6843 ± 0.0013	0.668 ± 0.035
QRTLVYKHKNDC [YLR285C-A C-terminal 12 aa]	0.686 ± 0.0091	0.657 ± 0.0068
QRTQAICIDKKW [YJL135W C-terminal 12 aa]	0.697 ± 0.014	0.6986 ± 0.0032
QVRDILDKLNII [PRB1 C-terminal 12 aa]	0.703 ± 0.015	0.6877 ± 0.0033

Sequence	protein stability index [1]	protein stability index (genetic background: wild type)
RACPLRPKSLIA [YMR315W-A C-terminal 12 aa]	0.655 ± 0.0078	0.667 ± 0.032
RAEIVIEEAGEL [CPR3 C-terminal 12 aa]	0.683 ± 0.011	0.6789 ± 0.0032
RDLHVEHDNEFY [RPD3 C-terminal 12 aa]	0.718 ± 0.019	0.662 ± 0.074
RDLNKLRSFQNF [YFL012W C-terminal 12 aa]	0.724 ± 0.024	0.4914 ± 0.0021
RDREMVRELFRR [RSO55 C-terminal 12 aa]	0.711 ± 0.017	0.692 ± 0.021
RFREEAYYSQFR [TCD2 C-terminal 12 aa]	0.716 ± 0.013	0.672 ± 0.037
RHEGQRSKNSVK [GYP7 C-terminal 12 aa]	0.686 ± 0.015	0.689 ± 0.019
RIEKYSDDVIPK [RIM13 C-terminal 12 aa]	0.695 ± 0.018	0.722 ± 0.0089
RKEIRKQKRATF [MRPS28 C-terminal 12 aa]	0.709 ± 0.059	0.734 ± 0.028
RKEKDPETYLDK [ERG8 C-terminal 12 aa]	0.691 ± 0.023	0.684 ± 0.01
RKNGYDIMTLHE [CLB1 C-terminal 12 aa]	0.719 ± 0.045	0.666 ± 0.027
RLGLDWKPDGMS [STD1 C-terminal 12 aa]	0.725 ± 0.029	0.6963 ± 0.0059
RLIKHINDIFWK [GPI13 C-terminal 12 aa]	0.717 ± 0.077	0.723 ± 0.092
RLKDGSVTCIKS [HMG1 C-terminal 12 aa]	0.7299 ± 0.0059	0.7 ± 0.021
RNKKKRFSWVGY [LAA2 C-terminal 12 aa]	0.699 ± 0.066	0.661 ± 0.044
RNYQKKGNKGCI [YCL076W C-terminal 12 aa]	0.687 ± 0.024	0.679 ± 0.034
RPIFPFLIVLIS [YBR196C-A C-terminal 12 aa]	0.16 ± 0.013	0.1088 ± 0.00092
RPPRTRIPRLRR [YKR047W C-terminal 12 aa]	0.7572 ± 0.0045	0.708 ± 0.036
RPSTNDPTSCCS [YPT52 C-terminal 12 aa]	0.697 ± 0.025	0.705 ± 0.03
RQRQLKSPQNVL [TYW3 C-terminal 12 aa]	0.714 ± 0.017	0.696 ± 0.046
RRLDDLETTMRM [SFH1 C-terminal 12 aa]	0.66 ± 0.015	0.662 ± 0.029

Sequence	protein stability index [1]	protein stability index (genetic background: wild type)
RRLKIQLCCISK [YHR180C-B C-terminal 12 aa]	0.658 ± 0.019	0.6544 ± 0.004
RRQSPPGYYVIR [YLR311C C-terminal 12 aa]	0.747 ± 0.0064	0.708 ± 0.027
RRSQLREHACVD [LDB7 C-terminal 12 aa]	0.707 ± 0.013	0.7096 ± 0.0049
RRTQAQSRSRKA [PKR1 C-terminal 12 aa]	0.675 ± 0.0088	0.706 ± 0.037
RSIIKLPVTKGL [YBL008W-A C-terminal 12 aa]	0.6946 ± 0.0058	0.6596 ± 0.0024
RSPKGNSIIEEI [BTN2 C-terminal 12 aa]	0.695 ± 0.026	0.655 ± 0.02
RSRNKALVSVST [VPS63 C-terminal 12 aa]	0.6496 ± 0.0045	0.667 ± 0.049
RVPKKNGKLSKK [PDR5 C-terminal 12 aa]	0.7012 ± 0.0033	0.704 ± 0.055
RYRNQIDDFDFS [IMP3 C-terminal 12 aa]	0.71 ± 0.034	0.754 ± 0.097
SAAIGAQSGLYI [PBA1 C-terminal 12 aa]	0.671 ± 0.021	0.67 ± 0.0091
SCQRILQELEKP [CAK1 C-terminal 12 aa]	0.689 ± 0.0094	0.705 ± 0.055
SDILKYILLGSN [SNF4 C-terminal 12 aa]	0.683 ± 0.0085	0.6783 ± 0.0061
SDVAKQLASFGY [RPL16B C-terminal 12 aa]	0.7021 ± 0.0051	0.6663 ± 0.00093
SEEKSNLIEFEA [MDR1 C-terminal 12 aa]	0.705 ± 0.013	0.6734 ± 0.0028
SEFPTCCDQAAI [SLZ1 C-terminal 12 aa]	0.707 ± 0.01	0.721 ± 0.0094
SGGFGGSGSGFI [FUB1 C-terminal 12 aa]	0.6972 ± 0.0036	0.691 ± 0.013
SGLIIAEAGIGG [YAL031W-A C-terminal 12 aa]	0.7001 ± 0.005	0.7129 ± 0.0038
SGVGAALCALVA [EMI2 C-terminal 12 aa]	0.583 ± 0.0075	0.602 ± 0.025
SGYSFNGSYGKS [WHI4 C-terminal 12 aa]	0.671 ± 0.0029	0.659 ± 0.022
SHLFFQLSCSLY [YLL044W C-terminal 12 aa]	0.685 ± 0.038	0.736 ± 0.069
SIDETELAKWNE [PEP3 C-terminal 12 aa]	0.734 ± 0.063	0.7 ± 0.048

Sequence	protein stability index [1]	protein stability index (genetic background: wild type)
SIGLTNLFLYRV [YDR010C C-terminal 12 aa]	0.715 ± 0.0083	0.681 ± 0.01
SIRKKSKYAYAA [TPO1 C-terminal 12 aa]	0.703 ± 0.012	0.642 ± 0.021
SKASLINKLIGN [NTR2 C-terminal 12 aa]	0.685 ± 0.011	0.7 ± 0.013
SKLNNGEIIVID [SRS2 C-terminal 12 aa]	0.685 ± 0.0081	0.702 ± 0.047
SKNILSFFTRKK [RAD30 C-terminal 12 aa]	0.774 ± 0.025	0.673 ± 0.0077
SKNVPALHMGGL [PBS2 C-terminal 12 aa]	0.6847 ± 0.0027	0.6721 ± 0.0054
SKPALGSCLYEL [GAL1 C-terminal 12 aa]	0.6989 ± 0.0023	0.687 ± 0.012
SLGGDVHSRRCS [ROQ1 C-terminal 12 aa]	0.7013 ± 0.0028	0.662 ± 0.018
SLKTFINDVLSF [SLS1 C-terminal 12 aa]	0.7066 ± 0.0021	0.717 ± 0.029
SLLVEDGGNPTA [YPL150W C-terminal 12 aa]	0.695 ± 0.007	0.69 ± 0.026
SLMIFSSFFLYN [YOR139C C-terminal 12 aa]	0.6872 ± 0.001	0.479 ± 0.02
SLRGCKSVFRRI [HMI1 C-terminal 12 aa]	0.663 ± 0.0076	0.741 ± 0.029
SLSTFPFVYKYL [EST3 C-terminal 12 aa]	0.749 ± 0.019	0.127 ± 0.0095
SNEHSSENTAGP [STE3 C-terminal 12 aa]	0.696 ± 0.013	0.684 ± 0.014
SNLALAGGAFRP [TAF5 C-terminal 12 aa]	0.711 ± 0.0013	0.688 ± 0.016
SPEIDDSSLACH [CTR2 C-terminal 12 aa]	0.707 ± 0.0085	0.6821 ± 0.0044
SQMRPPSQGDKI [DAL82 C-terminal 12 aa]	0.714 ± 0.024	0.675 ± 0.023
SQMTKKRKTKKE [APN1 C-terminal 12 aa]	0.72 ± 0.015	0.786 ± 0.064
SQNGHTSGSENI [LSP1 C-terminal 12 aa]	0.6941 ± 0.005	0.699 ± 0.03
